We go through 15 variants from the RNAGym collection of RNA variant scans (doi:10.1093/molbev/msab373).

First the molecules themselves.
B1: Azoarcus group I ribozyme (parent)
chain: GUGCCUUGCGCCGGGAAACCACGCAAGGGAUGGUGUCAAAUUCGGCGAAACCUAAGCGCCCGCCCGGGCGUAUGGCAACGCCGAGCCAAGCUUCGGCGCCUGCGCCGAUGAAGGUGUAGAGACUAGACGGCACCCACCUAAGGCAAACGCUAUGGUGAAGGCAUAGUCCAGGGAGUGGCGAAAGUCACACAAACCGG

The variants in the series derive from B1. Kind of series: reverse-splicing fitness (ratio to wild type); higher = more active; in vitro selection; Mg2+ level not given. In a few lines:
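An in vitro group I ribozyme library with randomized positions was T7-transcribed and gel-purified. In triplicate, 10 pmol RNA in EPPS pH 7.5 was reacted with 50 pmoles of a 30-nt RNA substrate for 1 h at 37 °C across several added MgCl2 levels (1–48 mM), then stopped with EDTA. Products were reverse transcribed from a substrate-complementary primer, PCR-amplified and sequenced (HiSeq 4000). Fitness is a variant's read proportion after selection over that before, normalised to wild type.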
For GUGCCUUGCGCCGGGAAACCACGCAAGGGAUGGUGUCAAAUUCGGCGAAACCUAAGCGCCCGCCCGGGCGUAUGGCAACGCUGAGCCAAGCUUCGGCGCCUGCGCCGAUGGAGGUGUAGGGACUAGACGGCACCCACCUAAGGCAAACGAUAUGGUGAAGGCAUAGUCGAGGGAGCGGCGAAAGUCACACAAACCGG [C82U A111G A120G C150A C169G U176C], the reverse-splicing fitness was found to be 0.0197.

GUGCCUUGCGCCGGGAAACCACGCAAGGGAUGGUGUCAAAUUCGGCGAAACCUAAGCGCCCGCCCGGGCGUAUGGCAACGCUGAGCCAAGCUUCGGCGCCUGCGCCGAUGGAGGUGUAGGGACUAGACGGCACCCACCUAAGGCAAACGAUAUGGUGAAGGCAUAGUCGAGGGAGGGGCGAAAGUCACACAAACCGG [C82U A111G A120G C150A C169G U176G]: the reverse-splicing fitness turned out to be 0.00435. For GUGCCUUGCGCCGGGAAACCACGCAAGGGAUGGUGUCAAAUUCGGCGAAACCUAAGCGCCCGCCCGGGCGUAUGGCAACGCUGAGCCAAGCUUCGGCGCCUGCGCCGAUGGAGGUGUAGGGACUAGACGGCACCCACCUAAGGCAAACGGUAUGGUGAAGGCAUAGUCAAGGGAGGGGCGAAAGUCACACAAACCGG [C82U A111G A120G C150G C169A U176G], the reverse-splicing fitness was 0.00628. Under GUGCCUUGCGCCGGGAAACCACGCAAGGGAUGGUGUCAAAUUCGGCGAAACCUAAGCGCCCGCCCGGGCGUAUGGCAACGCUGAGCCAAGCUUCGGCGCCUGCGCCGAUGGAGGUGUAGGGACUAGACGGCACCCACCUAAGGCAAACGGUAUGGUGAAGGCAUAGUCAAGGGAGCGGCGAAAGUCACACAAACCGG [C82U A111G A120G C150G C169A U176C] stands 0.0101. Regarding GUGCCUUGCGCCGGGAAACCACGCAAGGGAUGGUGUCAAAUUCGGCGAAACCUAAGCGCCCGCCCGGGCGUAUGGCAACGCUGAGCCAAGCUUCGGCGCCUGCGCCGAUGGAGGUGUAGGGACUAGACGGCACCCACCUAAGGCAAACGGUAUGGUGAAGGCAUAGUCAAGGGAGAGGCGAAAGUCACACAAACCGG [C82U A111G A120G C150G C169A U176A], the reverse-splicing fitness came out at 0.00933.

As for GUGCCUUGCGCCGGGAAACCACGCAAGGGAUGGUGUCAAAUUCGGCGAAACCUAAGCGCCCGCCCGGGCGUAUGGCAACGCUGAGCCAAGCUUCGGCGCCUGCGCCGAUGGAGGUGUAGGGACUAGACGGCACCCACCUAAGGCAAACGAUAUGGUGAAGGCAUAGUCCAGGGAGAGGCGAAAGUCACACAAACCGG [C82U A111G A120G C150A U176A], the reverse-splicing fitness turned out to be 0.00996. Regarding GUGCCUUGCGCCGGGAAACCACGCAAGGGAUGGUGUCAAAUUCGGCGAAACCUAAGCGCCCGCCCGGGCGUAUGGCAACGCUGAGCCAAGCUUCGGCGCCUGCGCCGAUGGAGGUGUAGGGACUAGACGGCACCCACCUAAGGCAAACGAUAUGGUGAAGGCAUAGUCCAGGGAGGGGCGAAAGUCACACAAACCGG [C82U A111G A120G C150A U176G], the reverse-splicing fitness amounted to 0.00658. Regarding GUGCCUUGCGCCGGGAAACCACGCAAGGGAUGGUGUCAAAUUCGGCGAAACCUAAGCGCCCGCCCGGGCGUAUGGCAACGCUGAGCCAAGCUUCGGCGCCUGCGCCGAUGGAGGUGUAGGGACUAGACGGCACCCACCUAAGGCAAACGAUAUGGUGAAGGCAUAGUCCAGGGAGCGGCGAAAGUCACACAAACCGG [C82U A111G A120G C150A U176C], the reverse-splicing fitness was determined as 0.016. Consider GUGCCUUGCGCCGGGAAACCACGCAAGGGAUGGUGUCAAAUUCGGCGAAACCUAAGCGCCCGCCCGGGCGUAUGGCAACGCUGAGCCAAGCUUCGGCGCCUGCGCCGAUGGAGGUGUAGGGACUAGACGGCACCCACCUAAGGCUAACGCUAUGGUGAAGGCAUAGUCGAGGGAGGGGCGAAAGUCACACAAACCGG [C82U A111G A120G A145U C169G U176G], for which the reverse-splicing fitness worked out at 0.00372.

For GUGCCUUGCGCCGGGAAACCACGCAAGGGAUGGUGUCAAAUUCGGCGAAACCUAAGCGCCCGCCCGGGCGUAUGGCAACGCUGAGCCAAGCUUCGGCGCCUGCGCCGAUGGAGGUGUAGGGACUAGACGGCACCCACCUAAGGCUAACGCUAUGGUGAAGGCAUAGUCUAGGGAGGGGCGAAAGUCACACAAACCGG [C82U A111G A120G A145U C169U U176G], the reverse-splicing fitness is 0.00342. Take GUGCCUUGCGCCGGGAAACCACGCAAGGGAUGGUGUCAAAUUCGGCGAAACCUAAGCGCCCGCCCGGGCGUAUGGCAACGCUGAGCCAAGCUUCGGCGCCUGCGCCGAUGGAGGUGUAGGGACUAGACGGCACCCACCUAAGGCUAACGCUAUGGUGAAGGCAUAGUCUAGGGAGAGGCGAAAGUCACACAAACCGG [C82U A111G A120G A145U C169U U176A]: the reverse-splicing fitness is 0.0208. For the variant GUGCCUUGCGCCGGGAAACCACGCAAGGGAUGGUGUCAAAUUCGGCGAAACCUAAGCGCCCGCCCGGGCGUAUGGCAACGCUGAGCCAAGCUUCGGCGCCUGCGCCGAUGGAGGUGUAGGGACUAGACGGCACCCACCUAAGGCUAACGCUAUGGUGAAGGCAUAGUCUAGGGAGCGGCGAAAGUCACACAAACCGG [C82U A111G A120G A145U C169U U176C], the reverse-splicing fitness came out at 0.0133. As to GUGCCUUGCGCCGGGAAACCACGCAAGGGAUGGUGUCAAAUUCGGCGAAACCUAAGCGCCCGCCCGGGCGUAUGGCAACGCUGAGCCAAGCUUCGGCGCCUGCGCCGAUGGAGGUGUAGGGACUAGACGGCACCCACCUAAGGCUAACGCUAUGGUGAAGGCAUAGUCUAGGGAGUGGCGAAAGUCACACAAACCGG [C82U A111G A120G A145U C169U], the reverse-splicing fitness was found to be 0.0103. For the variant GUGCCUUGCGCCGGGAAACCACGCAAGGGAUGGUGUCAAAUUCGGCGAAACCUAAGCGCCCGCCCGGGCGUAUGGCAACGCUGAGCCAAGCUUCGGCGCCUGCGCCGAUGGAGGUGUAGGGACUAGACGGCACCCACCUAAGGCAAACGAUAUGGUGAAGGCAUAGUCCAGGGAGUGGCGAAAGUCACACAAACCGG [C82U A111G A120G C150A], the reverse-splicing fitness was found to be 0.00982. For GUGCCUUGCGCCGGGAAACCACGCAAGGGAUGGUGUCAAAUUCGGCGAAACCUAAGCGCCCGCCCGGGCGUAUGGCAACGCUGAGCCAAGCUUCGGCGCCUGCGCCGAUGGAGGUGUAGGGACUAGACGGCACCCACCUAAGGCAAACGGUAUGGUGAAGGCAUAGUCCAGGGAGUGGCGAAAGUCACACAAACCGG [C82U A111G A120G C150G], the reverse-splicing fitness stood at 0.00676.
